T1: GST-IRP2 (Homo sapiens, UniProt P48200 1-963)
T1 sequence: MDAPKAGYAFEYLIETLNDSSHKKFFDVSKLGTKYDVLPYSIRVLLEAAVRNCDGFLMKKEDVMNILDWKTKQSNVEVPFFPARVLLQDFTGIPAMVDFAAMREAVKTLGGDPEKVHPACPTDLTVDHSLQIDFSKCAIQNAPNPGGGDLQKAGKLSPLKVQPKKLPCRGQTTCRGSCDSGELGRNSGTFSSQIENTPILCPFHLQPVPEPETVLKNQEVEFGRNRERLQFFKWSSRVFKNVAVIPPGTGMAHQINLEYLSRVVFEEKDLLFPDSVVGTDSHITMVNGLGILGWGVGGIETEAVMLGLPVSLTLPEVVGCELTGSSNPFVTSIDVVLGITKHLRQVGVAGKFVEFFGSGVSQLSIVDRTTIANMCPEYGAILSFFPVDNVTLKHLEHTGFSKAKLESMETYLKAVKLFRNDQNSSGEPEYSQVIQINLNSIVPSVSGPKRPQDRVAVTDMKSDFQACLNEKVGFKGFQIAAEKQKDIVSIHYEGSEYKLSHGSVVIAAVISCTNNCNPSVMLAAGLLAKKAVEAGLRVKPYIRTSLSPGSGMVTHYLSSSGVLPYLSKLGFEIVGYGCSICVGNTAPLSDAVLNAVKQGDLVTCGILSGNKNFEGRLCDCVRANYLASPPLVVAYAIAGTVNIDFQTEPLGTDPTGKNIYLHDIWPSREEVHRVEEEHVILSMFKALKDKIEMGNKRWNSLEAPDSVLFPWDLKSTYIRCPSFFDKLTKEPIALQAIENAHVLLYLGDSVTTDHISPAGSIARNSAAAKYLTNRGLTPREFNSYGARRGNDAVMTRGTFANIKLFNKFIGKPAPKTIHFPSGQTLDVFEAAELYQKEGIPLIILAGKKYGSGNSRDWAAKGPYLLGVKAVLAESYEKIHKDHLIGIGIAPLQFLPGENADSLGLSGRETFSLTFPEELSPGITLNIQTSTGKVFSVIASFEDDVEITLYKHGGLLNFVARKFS

T2: GST-IRP1 (Homo sapiens, UniProt P21399 1-889)
T2 sequence: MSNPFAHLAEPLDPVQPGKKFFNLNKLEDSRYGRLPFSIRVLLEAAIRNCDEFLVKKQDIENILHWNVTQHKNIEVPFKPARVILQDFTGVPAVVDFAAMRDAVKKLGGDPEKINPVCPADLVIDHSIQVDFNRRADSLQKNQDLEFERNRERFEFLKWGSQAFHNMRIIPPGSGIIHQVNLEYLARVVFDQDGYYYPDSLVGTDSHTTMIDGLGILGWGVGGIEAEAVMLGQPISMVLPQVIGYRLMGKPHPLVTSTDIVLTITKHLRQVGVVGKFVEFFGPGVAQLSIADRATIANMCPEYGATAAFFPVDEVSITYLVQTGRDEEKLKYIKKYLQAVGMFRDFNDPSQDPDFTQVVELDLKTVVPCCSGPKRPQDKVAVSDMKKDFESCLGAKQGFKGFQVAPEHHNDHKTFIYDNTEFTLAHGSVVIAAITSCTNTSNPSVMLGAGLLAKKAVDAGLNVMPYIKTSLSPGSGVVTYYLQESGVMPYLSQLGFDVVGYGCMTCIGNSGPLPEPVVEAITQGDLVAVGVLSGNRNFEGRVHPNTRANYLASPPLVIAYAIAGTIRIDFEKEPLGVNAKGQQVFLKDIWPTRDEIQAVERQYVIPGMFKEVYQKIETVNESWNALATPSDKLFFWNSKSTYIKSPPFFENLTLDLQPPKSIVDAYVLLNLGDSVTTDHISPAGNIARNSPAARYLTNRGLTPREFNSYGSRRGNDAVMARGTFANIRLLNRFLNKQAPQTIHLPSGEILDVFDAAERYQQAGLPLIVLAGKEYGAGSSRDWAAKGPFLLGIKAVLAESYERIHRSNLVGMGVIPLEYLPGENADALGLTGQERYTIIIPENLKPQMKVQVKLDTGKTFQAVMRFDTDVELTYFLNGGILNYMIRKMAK


Tests used:
[1] = target: T1, GST-IRP2; assay: EMSA
[2] = target: T2, GST-IRP1; assay: EMSA

Row | Binder | binding result [1] | binding result [2]
1 | GAGGGGGCUUGCACAGAGUUGGAGCCAGAGG (structured_RNA) [CD63 5' UTR IRE] | binds | binds
2 | CCUGGUUUUUAAGGAGUGUCGCCAGAGUGCCGCGAAUGAAAAA (ssRNA) [non-IRE control RNA] | no binding | no binding

From PMC8667049
